Experimental data as given in US20130270124, “BIOSENSOR ELECTRODE FOR HER2 DETECTION, A METHOD FOR PRODUCING IT, A METHOD FOR REGENERATING IT” (RESEARCH & BUSINESS FOUNDATION SUNGKYUNKWAN UNIVERSITY, published 2013).

Legend:
[1] = molecular target: Bovine serum albumin (BSA) (Bos taurus, UniProt P02769 P02769:25-607); assay: impedance; 20 ug/ml BSA in PBS, 30 min, Ret unchanged; conditions: tags: Sigma-Aldrich; label: 5'-amine, amide-coupled to MPA on gold electrode
Method: (§1) A conventional three-electrode cell was used for performing electrochemical impedance spectroscopy (EIS). Ag/AgCl and a platinum (Pt) plate were respectively used as a reference electrode and an opposite electrode. In every modification and detection stage, an operating electrode was detected by EIS in a 2 mM Fe(CN)6^{3-/4-}(1:1)/PBS solution. An amplitude-sine wave of about 10 mV was applied in a frequency range of about 0.1 Hz to 100 kHz.
EIS data was measured to investigate specificities of the aptamer with respect to other proteins existing blood, such as BSA and IgG. The EIS data of the aptamer-attached electrode was measured (block line), and then the aptamer-attached electrode was immersed in 20 μg/ml concentrations of BSA solution and IgG solution each for 30 minutes. […] Then, when the aptamer-attached electrode was immersed in a solution in which 30 ng/ml HER2 was added to a 20 μg/ml BSA/IgG solution for 30 minutes, the Rₑₜ value increased.

HER2 (ErbB2) = HER2 (ErbB2) (UniProt P04626 P04626:23-652); assay: electrochemical impedance on Au/MPA/aptamer electrode; dRet linear 5-50 ng/ml (y=18.97x+160.2, R2=0.99882), saturates 50-500 ng/ml; PBS, 30 min; conditions: tags: R&D Systems; label: 5'-amine, amide-coupled to MPA on gold electrode
Method: as §1
After immobilization of the NH₂-ssDNA, the modified gold electrode was incubated in a series of HER2/PBS solutions of different concentrations for 30 minutes each, and then washed with DI water. A series of HER2/PBS solutions of 5 ng/ml to 500 ng/ml concentrations were fabricated in order to confirm a range of soluble concentration.
After the aptamer (NH₂-ssDNA) was immobilized, the modified gold electrode was incubated in a series of HER2/PBS solutions of a range 5.0 to 50 ngmL⁻¹. The modified gold electrode was detected by EIS after each incubation. The difference of electron-transfer resistance ΔRₑₜ between the aptamer-modified gold electrode and the HER2-incubated gold electrode was obtained from a signal formed by a reaction between the immobilized aptamer and the HER2.

Sequence of Bovine serum albumin (BSA) (P02769 25-607, one chain of several): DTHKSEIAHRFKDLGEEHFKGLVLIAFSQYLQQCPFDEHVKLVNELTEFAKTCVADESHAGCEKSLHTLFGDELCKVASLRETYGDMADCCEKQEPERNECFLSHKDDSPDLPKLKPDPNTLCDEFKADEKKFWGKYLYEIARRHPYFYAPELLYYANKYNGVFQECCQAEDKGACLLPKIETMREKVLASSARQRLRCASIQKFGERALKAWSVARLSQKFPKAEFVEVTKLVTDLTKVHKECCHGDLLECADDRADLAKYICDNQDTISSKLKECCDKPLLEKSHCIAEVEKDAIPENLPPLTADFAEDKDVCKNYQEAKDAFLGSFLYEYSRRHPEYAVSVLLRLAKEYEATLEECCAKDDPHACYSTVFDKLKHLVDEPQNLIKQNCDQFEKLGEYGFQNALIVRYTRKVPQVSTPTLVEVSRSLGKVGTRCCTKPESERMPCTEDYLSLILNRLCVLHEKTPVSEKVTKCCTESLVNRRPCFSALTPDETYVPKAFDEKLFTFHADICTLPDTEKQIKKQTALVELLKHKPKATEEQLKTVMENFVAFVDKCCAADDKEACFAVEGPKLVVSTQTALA

B1: HER2 NH2-aptamer (ssDNA)
DNA: CTTCTGCCCGCCTCCTTCCTGGGGCCTGGATACGGATTGGTAAGGATTAGTAGGGGGCATAGCTGGAGACGAGATAGGCGGACACT
modifications: 5'-amino modifier C6
binding result [1]: no binding
binding result (HER2 (ErbB2)): binds
